From US20250026859A1 (BEIGENE, published 2025) come the findings set out here.

Sequences and labels used below:
B1: 77G10 (antibody, V domains shown)
VH: QSLEESGGRLVTPGTPLTLTCTASGFSLSSYYMSWVRQAPGKGLEYIGIISSSGSTDYASWAKGRFTISKTSTTVDLKITSPTTEDTATYFCARGWLDLWGQGTLVTVSS
VL: AAVLTQTPSPVSAAVGGTVSISCQSSKSVYNNNWLSWLQQKPGQPPKLLIHGASTLASGVPSRFKGSGSGTQFTLTISDVQCDDAATYYCAGGYSSSTDNAFGGGTEVVVK
notes: also called recombinant anti-DXd mAb 77G10
B2: 28C8 (antibody, V domains shown)
VH: QSVEESGGRLVTPGTPLTLTCTVSGFSLSSYAMNWVRQAPGKGLEYIGIIYDSGSTYYANWAKGRFTISKTSTTVDLKITSPTTEDTATYFCARGYLDIWGPGTLVTVSS
VL: B1 VL with N33K, H51Y, Q72E, S96I, T98S
notes: also called recombinant anti-DXd mAb 28C8
B3: 29D2 (antibody, V domains shown)
VH: B2 VH with V23A, S55T, N60S, G95A, Y96A
VL: B1 VL with S25A, L38V, K41T, H51Y, S95G, T98S, K111E
notes: also called recombinant anti-DXd mAb 29D2
B4: 76G4 (antibody, V domains shown)
VH: QSVEESGGRLVTPGTPLTLTCTASGFSLSSYYMFWVRQAPGKGLEYIGYIGDGGYTSYATWAKGRFTISKTSSTTVDLKITSPTTEDTATYFCARDGFTSGSIWGPGTLVTVSS
VL: B1 VL with A13T, S20T, S28N, L38F, H51Y, A53T, T98S, A101G, G104A
notes: also called recombinant anti-DXd mAb 76G4
B5: 35D6 (antibody, V domains shown)
VH: QSVEESGGRLVTPGTPLTLTCTVSGFSLSSHWMSWVRQAPGKGLEWIGIISSSGSTDYVSWAKGRFTISKTSTTVDLKITSPTTEDTATYFCARDLGYSTNIWGPGTLVTVSL
VL: AYDMTQTPASVEVTVGGTVTIKCQASQSIGSYLAWYQQKPGQRPKLLIYDASTLASGVSSRFKGSGSGTQFTLTISGVECADAATYYCQQGYSSSGVDNAFGGGTEVVVK
notes: also called recombinant anti-DXd mAb 35D6

Positions count from the first letter of the chain named.

The target in this test is T1, DXd-conjugated antigen.
T1 construct: also called DXd conjugated antigens
Briefly: competitive ELISA: coated DXd-conjugated antigen, antibody titrated with 1 ug/ml free biotin-DXd (small molecule) as competitor, streptavidin-HRP detection. A general note: ELISA stands for enzyme-linked immunosorbent assay.
What is called IC50 is the concentration that gives 50% inhibition. B1 yielded an IC50 of 0.953 ng/mL. The same measure for B2: 1.58 ng/mL; for B3: 1.26 ng/mL.

Take B4: the 50% inhibitory concentration (IC50) came out at 0.753 ng/mL.

Take B5: the IC50 came to 5.24 ng/mL.
